Measured values reported in the domain aggregation screens of Martell et al. (2025).

Experiment: soluble fraction after stress (log2 fold change); higher = more stays soluble; pooled small domains, quantitative proteomics
Conditions: stress: 50 degC
How it was run: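 Quantitative proteomics served as the high-throughput read-out for pooled custom libraries of small protein domains. Each was stressed at 50°C. Aggregation propensity is expressed as the base-two log fold change in soluble protein after stress. A higher value means a larger share of the protein remains in solution.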

Sequence | soluble fraction (log2)
HMHDITPAVAETFKQLRAERGLSLSQAAQLTGVSKAMLGQIERGQSSPTVSTLWKIATGFNVAFSVFL | -2.4
HMEDYYKILGVSKDASIDDIKKSYRKLSLQNHPDRNKSPQASENFAKINSAYEVLSDQRKKRQYDMQQSM | 0.0897
HMLSTGIIIGDNVALRKTASSNGGIITRLDEGTVVKILASNVNAEWYQVEAGTKTGYVNRLYVNID | -0.293
HMVANLPFNYKVYAKKGKLYVVISYKDSNGKYKKKWIRTGLDEGTKKKEVNTVADQIAAEYYSSMRLE | -1.54
HMKTGAKLKNLRKMKKLSQEEVAKVLNLSYSTLSRWENDTRIPTYEDLFKLGQFYGVSVDYLSDPN | -0.359
HMIITLNIENLKRARENAGLTQTQAAQKIGVSDGTYKNYEQGKREPNGDKIVTIANAFGVTTDYLLGR | -0.334
HMRKTLSQEAYEKIKQNLEDGVYQGYINGRQVARDLDIGFTPVREAFLQLQSEGLIRKEDNVGYFV | 0.139
HMAPDAPDGFVHRWIRAEMLGQEDKSNVHRRMQEGYELVRADEYPDSDLPVAEGRYAGIIGVGGLLLARF | -0.14
HMDSPVLTAEIKALIDKELEQNAVKLATGLKKQRKRATDIHDALIRQGHEVSYRTVVRYIRNKTAQTS | -0.061
HMVPPVVRTIYGAGGKMTATFLFPGGYEVDAASGAELPGKYRVESISLDQVVLTDKDGNRVPVGFSSVAPT | 0.0614
HMLGVLEYYNNGQKKSERTFKGGMQIYTEWYENGQMKAEERKWIDQLGSLKFLNLLSTEWDENGNEISRME | -1.34
HMLLTASNYFKETKGINFSELPEALQKGHSFVIKSTENGTNWNAYSTSQNIQRVIDAYFSKLDEYLEKNQ | -0.611
HMKKLPDDANDIIERVSSRLAQKFRFGYHTIDDMKQQAALFAWEGIYDSWDDSRPLENFLWIHVRNRLYN | -0.00948
HMEDLGYVKVASQTAAIRKSAAVQAGQIGTVHEGETYRYLGEEEGWYLVEYNGQKAYISWDDGEL | -0.119
HMREVVLNRIGSVAVQRATTRTWEEWVVTLDAEGMRGKEHRDVVGHLLRAHELTSWWAQMVSVGYEQSRGQ | -0.166
HMPPNHADLKSSGLKATLPRLKILEIFQNSQVRHLSAEDVYKLLLAENLDVGLATVYRVLTQFEQAGL | -0.475
HMELGYTPNNLRSVRAKYGLTQKQVAEITGLKTWHPVNRWEAPVEAAYHADMPHTKWLKLLDELSSR | -0.993
HMDSILMPGVVNKELREALAILKNEGIGWADPEYASSTVTRNYVISTDPVEGIELAPGQKVRLVVSLGPKP | -0.00706
HMDKPIFTLRENEVLYWASMGKTYAEIATIVGISVRTVKFHMGNVVSKLGVSNARQAIRLGVELDLITPMQ | -2
HMLARPTANELVKEMQRRAKEQRTELPPDAARDLLERSGQDQFLLGNEVDKLAALSGYTTITREMVAQAGT | 0.186
HMVDSLTIGRRIRQLRTERGMTLEELAAAVGRAPSQLSMIENGRREPKLTLLQAIARALGSTLDALLE | -0.116
HMQVLSESDVEDIKAISGGDKAYDNLMEWAGSKLSKQDAKDYDDVLATGNKTAITFAVKALMAQYENAN | -0.299
HMSEPRYRQLATILAQEIRSNHSAGDQLPSEQALAKRFEVNRHTVRRAVDELVAAGMVTRHQGWGTQVV | -0.0244
HMQISYDVPNLIGKSYEEVMTDPSILGEHFTVVLGETKTDEDTDAGVILHQDPAADSKVQDEVTPITVTVS | 0.42
HMVRSLESESVYDRQRAYEIAYQLRTEERPYSFIATQLNKAGLRPQKAARYEWYSVQELLRSA | -0.956

Sequence | soluble fraction (log2)
HMGWQPDPLTTRERLVAELATQASNAQIAEQLHLSVRTVEGHLAHVYTKLGITTRRELPAALAGAR | -0.891
HMGDWEKALAQFAAHRLANGSTAFLDEMYPIFERILLQAALNKTGGRKIEAAELLGWGRNTLTRKLKELGF | -2.2
HMEISPGDVFKQLPGIGDDLSRRVVESLGIQSLEELESAAHDGRLEQVEGFGERRVQMVRAVLTGMLS | -0.0423
HMSKHAIQNELEKIEGIGKQTADSLLKEFKSVKKLRTLPLSEIEKVIGKSKATIVFEALHKDK | 0.133
HMSNPADDVVDLLRQLRLPHMRAAAPELLATAKAQRWDPAEAIRALLTEELAGRQASSINARRK | -0.406
HMRLPVELTDREVEVLRLLAQAMSNGEIARELYIGEATVKTHVSNVLQKLGARDRVAAVVWAHRYGL | -1.59
HMDLGEQIIEKLRAAGGFLAITDKSPAEEIYELFATSKKNYKKAVGGLYKKGLLVIEDDGIRLTPAGR | -0.102
HMNSLQNNLKQARTRVGLTQGVLASQAGISRQAYSTLESGSANPSTEVALRLAQALQERVELLFYLPER | -0.705
HMTNYSFIVNENFNNKRIDQVVANHYPKISRTKVNKIIKNNLLKLNGSTFNDPSAKVKLGDQIEFENL | 0.389
HMQQLAEQIPTDRPYISIAEAVVLFGISRDTIYRQIRKGNIPAVNLGERLTRISRIHIEAMFPKV | -0.563
HMQISDDSELIKIVDNILANSQKQIDDYHNGKTNLFGFFVGQVMKETKGKANPVKVNEILKDKL | 0.00641
HMIPESVQGIEEFLATGALKGIGKKTAAAIVHKFGKDTLRIMEEEPERLAEVSGIGEKKAAAIGEAFALH | 0.171
HMKGKDLQDAVVTVVGGAENWNAIRAWAQASASDSEKREINAAFQSGKLMATMMAERLALAYQQSG | -0.0897
HMAVQAESDIIKRAALLRNLGNTSMQLKNIDQAIDFYKQGIKLHPEDAELKYNLSQALRQKSQSNN | 0.0399
HMHIVQEGDSLYGIARQYRITVEELRSLNALETADVIVPYQKLYV | -0.942
HMKESRFDYDAVLLYSDKDSITEVKDAVQHLTKEFGSVFTTKKIPEKATFGKLFRIEKGEVNIIEDN | -0.0248
HMDLKTNSQLINELEKKIKRPFDREIKNYLNKNLSTDRMISNNEIDKIILFYSGNNEIPNIEKISLILNDN | -0.112
HMSNEYLMPNLIGMSWDEAKSKYSQYMTLVPEQEWSEVTKDQIFDQEYPEGRKVKIGTEVTVKVSMGI | -0.192
HMKLIRLGKAAGELNVGMSTLAEFLQSKGHSVDPNPNTKLTPEQYALLRMEFAADQTLKKLTKQP | 0.198
HMKEVDERPWGKYEVLLDAPDVKVKRITVNPGQRLSYQYHEKRAEVWTVVSGILTIILEDDKLFRG | 0.237
HMLLREKLESVLPFISVSALAKTYFKRSPQWFYQRLNGSIVNGKPIRFNDAELKTLAGALTDIGKKISQAA | -0.322
HMAPSLQISLKQAIITAQQQHPGSKALNADFDGARGTPRYVIETLLPTGELRELTIDAQSGQVMEDHPDR | 0.119
HMDIMLLLYKNIKKRRLEIGMSQEELAQKTGYTSRSSIAKIEKGEVDLQLSKIKLFANALRVSQSELMG | -3.39
HMVGIAEAMKHIADEDYGDLSAIFKQIFSDTDGGRNFSDAIRTQMRSTDSSGLRKVLSTLIMSIEE | -0.498
HMSDFSSNLRRLRKRAGLSQDALAEKLSVARQTVSSWERGNSYPDLDMLVRISDALATDPNELLYPN | -0.00275

Sequence | soluble fraction (log2)
HMNTKHVFIIEQDDEKKRLDIFLVEKLQDSRSFLKKGIVEGWVKVNESVVKPNYKLKQKDQITVIIPP | -0.278
HMGGGEYTVAKGDTLWKIAAQTLGSPTRYAEIYNLNKDVIEETARGRGKRDSSNGHWLFPGTALKIPGT | 0.355
HMGTAEDYLLPRRAEILSIIRDHEFANFDLIRRRFLAVNERTLRYDLKKLSDLGLIKKLGKTRGVYYRAAK | -1.49
HMIQTMVVTDLKNGTIFKENGHPFIVLKYEHIKVSRGSAQVRVKMKNLITGQVLEKSWQSTAHVDDT | -2.1
HMDVNAQAGYDKLQSNQLDGARHDYEQALKTDPNNVDTLLALAAIAQRQGRSADADGYRQRAIDAD | -0.124
HMGLDNEGFERLRQKITRLLSEEALPVKELVDSFASKMRQEVLETLAFLQQEGVIEEKNGKLFLK | 0.0365
HMSGEVLTAVVPETASGERLDKVLPQIFPPYSRSQLQTWLKEGRVTLDREIPAARLAVIGGETLRLEVPSL | -0.145
HMSILEIFGRNVQKYRKEQRLSQEKLAEYAGLHRTYIGMIERAEKNITLVNIEKIAKALNINLTKLLE | -3.14
HMDIAATTVKQKIRTLLADEDAARPLSDQKIADALAEDGIDVARRTVAKYREELGIEPSWARKR | 0.0398
HMSFGWESLENKEGVADTDLHPSGWVRIEDSRIFVVSEGDFINKGSKVTVLTVDGNRVVVRELI | -0.522
HMKVVEKHIVPQIQNPIRLQEYASSIFKTITTRSGIKKAIKKQLILLNRKPANTGDWIKEGQLLELLAEE | -0.242
HMFDDEELDTFAGRQSDSYDQQEVEQFSDVLHTMRQDEVQAWWRSLTLRGISLPDELKDEVIML | -0.538
HMDVNHVIIDHKGNSIQAIIDSIDLDNVYYQSKIKKESEVIDIDKVYFIFNDFDRVYHYDWSYYENL | -0.138
HMLKPQQTQRIYAMAARLGVLESGNKNDMLHTIVYRLTQKESIRSLNENEYKTVVSELAERLKL | -0.97
HMGVAFAPVEKIKHTKTGNELYAVKLAGRVEAEVFGQLRQKAKEYDGYYSKFSRAFLFSTPEDAEAFRAE | 0.0208
HMNIGIVSLAAVPMRKEPSDRAEMVNQILFGETFDVLEEQEKWTLVQLHHDAYQGWIDRKQWDYASGIAD | -1.01
HMQVSEQVQRLLDALENDTLTTKELMDRLGLKHRPTFRKNYLLPSMKLGLVEMTIPDKPNSSRQKYRRRQ | -0.65
HMISKRFQIDEDNSNKRIDIFLTQSLDSISRGIVQQLILENKVEVNGGPVKRNYLIKIGDVIDVKIDL | -0.939
HMVQPSAAVRAHPVGAFVEQRQGLSDDQILALQKKWNEGIYARIQGTRWFLFSKDTPAVTSLLLVPDLP | -0.555
HMGASGVEVPDVAGMSTAQAVSSLEQKGFVVNRTESYDAGVEKGNVISQSPEGGTKAPNGSAVTIRISQGA | 0.428
HMSATEPVHFDPNKSPEDMTVEELQAGILAKMANNGPVSDQMKKTVNENIWHDSLVNWLKSF | 0.0373
HMSKHATLLEALADLSVKLKPHSQLPSERALSEEYGVSRMTLRRAIDVLQARGYIYSVPSKGLFVSEP | -1.74
HMRLPAISYSFARKHGVVLRLDGDRPVASLREGADPAILIEVKRHLDGAMGVEKVSEAAFDQLLSTTYA | -0.484
HMTDNSTTTIRNLKIEWLLEEIRNAVRTGVSVDAAVERISNNPFVKPPEDLLNEARIIFLQNAGQI | -0.166
HMSKEIQNILASLPSVDVLLKQIDPIYPHGKAKEATQQVVARLRESVVDGTRKTVIDQKEVIAMIHKQLEE | 0.143
